In US20210380703A1 (RIGEL PHARMACEUTICALS, published 2021):
Where a chain is given by its changes, count along the chain named.

B1: 371_E05 (antibody, V domains shown)
VH: EVQLLESGGGLVQPGGSLRLSCAASGFTFSSYSMNWVRQAPGKGLEWVAGINYNGGYTSYADSVKGRFTISRDNSKNTLYLQMNSLRAEDTAVYYCARGATWHDTHLDYWGQGTLVTVSS
VL: DIQMTQSPSSLSASVGDRVTITCRASQSIISYLNWYQQKPGKAPKLVIYAATSRASGVPSRFSGSGSGTDFTLTISSLQPEDFATYYCQQSYSSPLTFGGGTKVEIK
notes: VH/VL only
B2: 371_B01 (antibody, V domains shown)
VH: B1 VH with S30D, A49S, G50N, G55S, S59G
VL: B1 VL with I30L, L33V, V47L, R54L, S93D, S94L
notes: VH/VL only
B3: 370_D09 (antibody, V domains shown)
VH: B1 VH with S31D, A49S, G55S
VL: B1 VL with I30V, S31T, S93D, S94T
notes: VH/VL only
B4: 370_C10 (antibody, V domains shown)
VH: B1 VH with S30D, A49S, G50N, G55S, T58K, S59G
VL: B1 VL with I30V, L33V, V47L, A51T
notes: VH/VL only
B5: 370_H06 (antibody, V domains shown)
VH: B1 VH with S30D, S31D, G50N, S59G
VL: B1 VL with I30L, S31T, V47L, S93E, S94T
notes: VH/VL only
B6: 370_F01 (antibody, V domains shown)
VH: B1 VH with S33G, A49S, G50N
VL: B1 VL with I30V, V47L, S93D
notes: VH/VL only
B7: 369_E05 (antibody, V domains shown)
VH: B1 VH with S31D, S33G, G50N, T58K
VL: B1 VL with I30L, S31T, V47L, R54L, S93E, S94T
notes: VH/VL only
B8: 369_F09 (antibody, V domains shown)
VH: B1 VH with S33G, N35H
VL: B1 VL with I30L, S31T, L33V, V47L, S93D
notes: VH/VL only
B9: 371_F03 (antibody, V domains shown)
VH: B1 VH with A49S
VL: B1 VL with S31T, V47L, R54L, A55H, S93D, S94N
notes: VH/VL only
B10: 370_F02 (antibody, V domains shown)
VH: B1 VH with S30D, S33G, G50N, S59G
VL: B1 VL with I30L, V47L, A51V, A55H, S93D
notes: VH/VL only
B11: 370_F12 (antibody, V domains shown)
VH: B1 VH with S31D, G50N, S59G
VL: B1 VL with I30L, V47L, T52S, R54L, A55Q, S93D
notes: VH/VL only
B12: 370_E05 (antibody, V domains shown)
VH: B1 VH with S33G, A49S, G50N, T58K, S59G
VL: B1 VL with I30S, S31T, A51V, S93N
notes: VH/VL only
B13: 369_G05 (antibody, V domains shown)
VH: B1 VH
VL: B1 VL with I30V, V47L, A55H, S93D
notes: VH/VL only
B14: 370_E04 (antibody, V domains shown)
VH: B1 VH with G50N, T58K, S59G
VL: B1 VL with I30L, S31T, V47L, A51V, R54L, A55H, S93E, S94T
notes: VH/VL only
B15: 371_E09 (antibody, V domains shown)
VH: B1 VH with S31D, A49S, G55S
VL: B1 VL with I30L, S31T, V47L, S93N
notes: VH/VL only
B16: 370_B08 (antibody, V domains shown)
VH: B1 VH with S31D, G50N, S59G
VL: B1 VL with I30L, V47L, T52S, R54L, A55Q, S93D
notes: VH/VL only
B17: 369_H02 (antibody, V domains shown)
VH: B1 VH with S30D, S31D, A49S, G50N, T58K
VL: B1 VL with V47L, S93D
notes: VH/VL only
B18: 369_A11 (antibody, V domains shown)
VH: B1 VH with S30D, S33G, G50N, T58K, S59G
VL: B1 VL with S31T, A55H, S93E
notes: VH/VL only

Columns and labels:
Human ACVR2A = target: T1, Human ACVR2A (human, UniProt P27037 20-135, limits assumed); assay: ELISA
T1 construct: also called activin receptor, type II A
Description: (§1) The binding of ACVR2A-specific monoclonal antibodies to human ACVR2A, mouse ACVR2A, biotinylated goat anti-human kappa light chain (positive control) and human Fc (negative control) were determined by ELISA.

Mouse ACVR2A = Mouse ACVR2A (mouse, UniProt P27038 20-135, limits assumed); assay: ELISA
Description: as §1

Goat anti-Human Kappa = target: T2, Goat anti-Human Kappa; assay: ELISA; positive control
T2 construct: Positive control; also called biotinylated goat anti-human kappa light chain
Description: as §1
Further: test concentration or dose not given here.

Mouse ACVR2A, sequence (P27038 20-135 limits assumed): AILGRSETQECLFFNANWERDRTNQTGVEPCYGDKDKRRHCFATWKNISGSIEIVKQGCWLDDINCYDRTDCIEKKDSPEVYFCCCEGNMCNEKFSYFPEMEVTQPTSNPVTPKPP
T1 sequence (P27037 20-135 limits assumed): as the sequence (P27038 20-135 limits assumed) above, with R20K, I73V counted along it

| Binder | optical density (Human ACVR2A) | optical density (Mouse ACVR2A) | optical density (Goat anti-Human Kappa) |
| --- | --- | --- | --- |
| B1 | 2.99 OD | 3.18 OD | 3.45 OD |
| B2 | 3.26 OD | 3.27 OD | 3.58 OD |
| B3 | 2.92 OD | 2.53 OD | 3.48 OD |
| B4 | 1.3 OD | 1.38 OD | 3.35 OD |
| B5 | 3.22 OD | 3.39 OD | 3.51 OD |
| B6 | 3 OD | 3.14 OD | 3.67 OD |
| B7 | 1.41 OD | 1.64 OD | 1.9 OD |
| B8 | 3.23 OD | 3.38 OD | 3.6 OD |
| B9 | 1.19 OD | 1.3 OD | 1.82 OD |
| B10 | 2.68 OD | 2.89 OD | 3.63 OD |
| B11 | 3.55 OD | 3.57 OD | 3.64 OD |
| B12 | 2.58 OD | 2.77 OD | 3.52 OD |
| B13 | 3.04 OD | 3.28 OD | 3.31 OD |
| B14 | 2.57 OD | 2.72 OD | 3.4 OD |
| B15 | 2.08 OD | 2.28 OD | 3.15 OD |
| B16 | 3.13 OD | 3.25 OD | 3.35 OD |
| B17 | 3.09 OD | 3.29 OD | 3.57 OD |
| B18 | 2.64 OD | 2.77 OD | 3.29 OD |
